Test results taken from US12201692B2, “Targeted protease compositions and uses related thereto” (Emory University, priority 2013, dated 2025).
Entries after “also recorded” stand apart in the source; their conditions may differ.

Experiments:
[1] = Solubility of recombinant ATF fragments; assay type: physicochemical; settings: compared to ATF 135 aa
Source text: The amino terminal fragment (ATF, 135 aa) of uPA was used as a target ligand to develop uPAR-targeted theranostic IONPs. The yield and purity of recombinant ATF from bacterial cultures have been less than optimal due to the formation of undesirable aggregates. By removing of the hydrophobic amino acids that promote the formation of aggregates, uPAR targeting ligands (39 and 68 aa) with receptor-binding peptide regions were engineered as improvements.
In comparison with the full length ATF (135 aa), this short uPAR targeted ligand is an improved candidate to engineer the fusion targeting ligand ATF68-MMP14 with dual uPAR targeting and MMP14 protease activity.

uPAR = uPAR (Homo sapiens, UniProt Q03405); assay: uPAR-targeting efficiency of ATF fragment; settings: in comparison with the full length ATF (135 aa)
uPAR, sequence (Q03405 23-305): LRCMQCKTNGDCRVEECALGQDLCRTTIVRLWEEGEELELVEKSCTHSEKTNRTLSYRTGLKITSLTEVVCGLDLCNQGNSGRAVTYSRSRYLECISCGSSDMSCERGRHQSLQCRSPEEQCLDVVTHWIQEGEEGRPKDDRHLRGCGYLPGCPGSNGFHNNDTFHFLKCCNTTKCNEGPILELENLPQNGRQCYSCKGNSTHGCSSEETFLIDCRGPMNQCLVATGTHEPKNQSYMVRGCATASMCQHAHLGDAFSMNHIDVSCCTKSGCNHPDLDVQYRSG

- uPAR-targeting efficiency (uPAR): higher uPAR-targeting efficiency
B1: ATF68: uPA-ATF with only the growth factor domain, 68 aa uPAR targeting ligand (SEQ ID NO:2) (protein)
chain: SNELHQVPSNCDCLNGGTCVSNKYFSNIHWCNCPKKFGGQHCEIDKSKTCYEGNGHFYRGKASTDTMG
- solubility [1]: better solubility; also recorded: improved physiological solubility
